Results reported in paper PMC6213154, “Mapping the Contact Sites of the Escherichia coli Division-Initiating Proteins FtsZ and ZapA by BAMG Cross-Linking and Site-Directed Mutagenesis” (International Journal of Molecular Sciences, 2018).

B1: FtsZ (Filamenting temperature sensitive Z), Escherichia coli (natural protein, E. coli, UniProt P0A9A6 1-383, looked up)
chain: MFEPMELTNDAVIKVIGVGGGGGNAVEHMVRERIEGVEFFAVNTDAQALRKTAVGQTIQIGSGITKGLGAGANPEVGRNAADEDRDALRAALEGADMVFIAAGMGGGTGTGAAPVVAEVAKDLGILTVAVVTKPFNFEGKKRMAFAEQGITELSKHVDSLITIPNDKLLKVLGRGISLLDAFGAANDVLKGAVQGIAELITRPGLMNVDFADVRTVMSEMGYAMMGSGVASGEDRAEEAAEMAISSPLLEDIDLSGARGVLVNITAGFDLRLDEFETVGNTIRAFASDNATVVIGTSLDPDMNDELRVTVVATGIGMDKRPEITLVTNKQVQQPVMDRYQQHGMAPLTQEQKPVAKVVNDNAPQTAKEPDYLDIPAFLRKQAD
notes: FtsZ, Escherichia coli; tryptic peptides up to the C-terminal KQAD (residues 380-383) were identified; In the cross-linking experiments a 1:1 mixture of 14N- and 15N-labelled FtsZ was used (about 95% 15N); Polymerised with GTP into protofilaments; also called ^14N-FtsZ; ^15N-FtsZ; source: E. coli BL21(DE3) pRRE6, isolated as described [52]
B2: ZapA (Z associated protein A), Escherichia coli (natural protein, E. coli)
chain: MSAQPVDIQIFGRSLRVNCPPDQRDALNQAADDLNQRLQDLKERTRVTNTEQLVFIAALNISYELAQEKAKTRDYAASMEQRIRMLQQTIEQALLEQGRITEKTNQNFE
notes: ZapA, Escherichia coli; source: isolated using a His-tagged version, His-tag removed by proteolysis, as described [8]

Tests used:
[1] = target: the molecule itself; experiment: cross-linking; BAMG, LC-MS/MS; bundling conditions: FtsZ (14N:15N 1:1) without ZapA, 10 mM CaCl2, 30 uM GTP, polymerization buffer pH 7.5, 30 °C
[2] = target: B1; experiment: cross-linking; BAMG (100-150 uM) added 30-60 s after GTP, 30 min at 30 °C; trypsin digest, enrichment on ARCO resin, SCX, LC-MS/MS; 3.4 uM FtsZ (14N:15N 1:1), 6.8 uM ZapA, 50 mM HEPES pH 7.5, 50 mM KCl, 5 mM MgCl2, 60 uM GTP; no Ca2+; details: both partners purified
[3] = target: the molecule itself; experiment: as above

binding result [2] | Binder | binding result [1] | stoichiometry N [3]
 | B1 | binds | 
binds | B2 |  | 4
